Assays:
Test in all cases: SPR
PI3P = settings: parent: est. 370; read off a plot
PI(4,5)P2 = settings: parent: est. 240; read off a plot
PI5P = settings: parent: est. 460; read off a plot
[1] = biological target: histone H3 peptide trimethylated at lysine 4; settings: parent: est. 490; read off a plot

| response (PI3P) [RU] | response (PI(4,5)P2) [RU] | response (PI5P) [RU] | response [1] [RU] | Substance |
| --- | --- | --- | --- | --- |
| 270 | 120 | 400 | – | GST-TAF3 PHD finger, wild type D890; W891 |
| – | – | – | 570 | GST-TAF3 PHD finger, wild type K922; K923; K925; K926; R927; K928 |
